Substitutions are numbered along the chain they refer to.

Assay [1] concerns the target T1, human PSMA on cells (Cho-hPSMA, CHO-K1 cells overexpressing full-length human PSMA) (human, UniProt Q04609 1-750).
T1 construct: whole, on cells; also called cell surface PSMA; PSMA-expressing Lncap cells
Kind of assay: flow cytometry, Cho-hPSMA; antibody at 0.8 nM. The procedure: (§1) Experiment 1: Cho-hPSMA was cultured in F12 medium with 10% FBS. The medium to which cells were inoculated was incubated in a 37° C., 5% CO₂ incubator for 2 days, and cells were added to a cell plate at 1×10⁵ cells/well and washed by centrifugation. Antibodies were serially diluted, and the antibody solutions were added to the cell plate at 100 μL/well. The plate was incubated at 4° C. for 1 h and then washed. An AF488-Goat Anti-human IgG Fc fluorescent secondary antibody dilution (1:400) was added to the cell plate at 100 μL/well, and the plate was incubated at 4° C. for 1 h and then washed. PBS was added to the cell plate at 100 μL/well before plate reading.
(§2) Experiment 3: The binding activity of bispecific antibodies was measured using the method of experiment 1.
For orientation: In flow cytometry, cells or beads pass a laser one at a time.

Assay [2] has as its target T1, human PSMA on cells (Cho-hPSMA, CHO-K1 …). The assay can be described thus: flow cytometry, Cho-hPSMA; antibody at 100 nM. As for the experimental part: as §1, §2
The target is the same in assay [3]. Kind of assay: flow cytometry, Cho-hPSMA; antibody at 20 nM. The procedure: as §1, §2
The target is the same in assay [4]. The assay can be described thus: flow cytometry, Cho-hPSMA; antibody at 4 nM. The procedure:
as §1, §2

Assay [5] shares this target. Kind of assay: hybridoma screening on cells.
Another assay deals with hIL5 (human, UniProt P05113 20-134). The assay can be described thus: ELISA.
The target in a further assay is hTSLP (human, UniProt Q969D9 29-159). Kind of assay: ELISA. On the technique in general: In an ELISA, binding on a coated surface is turned into a signal by an enzyme label.

T1 sequence (Q04609 whole entry): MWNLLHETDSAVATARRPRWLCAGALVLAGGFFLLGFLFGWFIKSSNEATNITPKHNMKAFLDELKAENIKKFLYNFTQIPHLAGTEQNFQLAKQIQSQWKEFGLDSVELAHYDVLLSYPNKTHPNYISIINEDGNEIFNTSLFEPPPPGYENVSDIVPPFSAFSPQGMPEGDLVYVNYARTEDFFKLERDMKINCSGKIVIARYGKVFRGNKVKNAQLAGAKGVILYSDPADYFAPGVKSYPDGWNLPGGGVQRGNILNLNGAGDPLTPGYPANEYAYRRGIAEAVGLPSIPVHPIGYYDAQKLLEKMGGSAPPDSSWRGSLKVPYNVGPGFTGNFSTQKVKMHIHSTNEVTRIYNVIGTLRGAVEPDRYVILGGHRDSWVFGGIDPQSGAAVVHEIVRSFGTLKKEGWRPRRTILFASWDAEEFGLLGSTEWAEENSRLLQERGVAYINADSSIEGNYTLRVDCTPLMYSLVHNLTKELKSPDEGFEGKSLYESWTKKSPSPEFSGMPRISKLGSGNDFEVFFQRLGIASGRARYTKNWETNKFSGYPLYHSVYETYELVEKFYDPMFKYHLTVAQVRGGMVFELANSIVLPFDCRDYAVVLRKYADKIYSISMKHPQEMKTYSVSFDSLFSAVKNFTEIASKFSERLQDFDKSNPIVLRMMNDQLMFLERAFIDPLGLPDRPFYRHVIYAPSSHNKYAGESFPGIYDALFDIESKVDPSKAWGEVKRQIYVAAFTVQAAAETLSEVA

B1: 15-F2 (bispecific antibody)
heavy 1: not shown
light 1: DIQMTQSPSSLSASVGDRVTITCKASQGVDTAVAWYQQKPGKSPKLLIYWASTRHTGVPDRFSGSGSGTDFTLTISSLQPEDVATYYCQQYSRYPLTFGQGTKLEIKRTVAAPSVFIFPPSDEQLKSGTASVVCLLNNFYPREAKVQWKVDNALQSGNSQESVTEQDSKDSTYSLSSTLTLSKADYEKHKVYACEVTHQGLSSPVTKSFNRGEC
heavy 2: not shown
light 2: not shown
notes: PSMA x CD3, Format 2
As for B1, the fluorescence intensity in assay [1] is 15000; in assay [2] it was 26900; in assay [3], 30700; in assay [4] it was 27800.

B2: murine antibody 50 (antibody, V domains shown)
VH: QVQLQQSGAELARPGASVKLSCKASGFTFTNYGISWVKQRTGQGLEWIGEIYPRSGNTYYNTNFKGEATLTADKSSSTAFMELRSLTSEDSAVYFCARNPFTTVVEGFAFWGQGTLVTVSA
VL: DVFMTQSPLSLPVSLGDQASISCRSSQSILHSNGNTYLEWYLQKPGQSPKLLIYRVSNRFSGVPDRFSGSGSGTDFTLKISRVEAEDLGVYYCFQGLHVPPTFGAGTKLELK
notes: murine hybridoma antibody
Turning to B2, the binding result in assay [5] is reported as “binds”.

B3: HJ-3 (bispecific antibody)
chain 1: not shown
chain 2: DIQMTQSPSSVSASVGDRVTITCRASQDIANYLSWYQQKPGKSPKLLIYGTSNLEVGVPSRFSGSRSGTDFTLTISSLQPEDFATYYCLQDKEFPRTFGGGTKVEIKGGGGSSGAPRFLTRPLAFVVSVGKDATLSSQIVGNPTPQVSWEKDKQPVTAGARFRLAQDGDLYRLKILDLQLSDSGQYVSRARNAIGEAFACLGLQVDAEA
chain 3: EVQLVQSGAEVKKPGSSVKVSCKASGYTFSNYLIEWVRQAPGQGLEWIGVIDPGVGDTNYNENFKGRATLTADKSTSTAYIELSSLRSEDTAVYYCAREDNTGTAFDYWGQGTTVTVSSASTKGPSVFPLAPSSKSTSGGTAALGCLVKDYFPEPVTVSWNSGALTSGVHTFPAVLQSSGLYSLSSVVTVPSSSLGTQTYICNVNHKPSNTKVDKKVEPKSCDKTHTCPPCPAPEAAGGPSVFLFPPKPKDTLMISRTPEVTCVVVDVSHEDPEVKFNWYVDGVEVHNAKTKPREEQYNSTYRVVSVLTVLHQDWLNGKEYKCKVSNKALPAPIEKTISKAKGQPREPQVCTLPPSREEMTKNQVSLSCAVKGFYPSDIAVEWESNGQPENNYKTTPPVLDSDGSFFLVSKLTVDKSRWQQGNVFSCSVMHEALHNHYTQKSLSLSPGKDYKDDDDK
chain 4: SIVMTQTPLSLSVTPGQPASISCKASQSVSSDVTWYLQKPGQSPQLLIYYVSEHYTGVPDRFSGSGYGTDFTLKISRVEAEDVGVYYCQQHHRFPLTFGQGTKLEIKRTVAAPSVFIFPPSDEQLKSGTASVVCLLNNFYPREAKVQWKVDNALQSGNSQESVTEQDSKDSTYSLSSTLTLSKADYEKHKVYACEVTHQGLSSPVTKSFNRGEC
By EC50 is commonly meant the concentration that produces a half-maximal response. Regarding B3, the EC50 with hIL5 was found to be 17.4 nM; in the assay with hTSLP, 3.23 nM.

B4: HJ-5 (bispecific antibody)
chain 1: not shown
chain 2: B3 chain 2 with L123K, F125S, T144F, A160V, I194H
chain 3: EVQLVQSGAEVKKPGSSVKVSCKASGYTFSNYLIEWVRQAPGQGLEWIGVIDPGVGDTNYNENFKGRATLTADKSTSTAYIELSSLRSEDTAVYYCAREDNTGTAFDYWGQGTTVTVSSASTKGPSVFPLAPSSKSTSGGTAALGCLVKDYFPEPVTVSWNSGALTSGVHTFPAVLQSSGLYSLSSVVTVPSSSLGTQTYICNVNHKPSNTKVDKKVEPKSCDKTHTCPPCPAPEAAGGPSVFLFPPKPKDTLMISRTPEVTCVVVDVSHEDPEVKFNWYVDGVEVHNAKTKPREEQYNSTYRVVSVLTVLHQDWLNGKEYKCKVSNKALPAPIEKTISKAKGQPREPQVCTLPPSREEMTKNQVSLSCAVKGFYPSDIAVEWESNGQPENNYKTTPPVLDSDGSFFLVSKLTVDKSRWQQGNVFSCSVMHEALHNHYTQKSLSLSPGK
chain 4: B3 chain 4
Turning to B4, the EC50 amounted to 16 nM with hIL5 and 2.64 nM in the assay with hTSLP.

B5: HJ-7 (bispecific antibody)
chain 1: not shown
chain 2: B3 chain 2 with L123K, F125S, S137C, T144F, A160V, S188C, I194H
chain 3: B4 chain 3
chain 4: B3 chain 4
Regarding B5, the EC50 with hIL5 is 17.7 nM; with hTSLP, 2.18 nM.

B6: HJ-6 (bispecific antibody)
chain 1: not shown
chain 2: B3 chain 2 with R121C, L123K, F125S, T144F, A160V, I194H
chain 3: B4 chain 3
chain 4: B3 chain 4
With B6, the EC50 with hIL5 came out at 37 nM; with hTSLP it was 2.88 nM.

B7: HJ-11 (bispecific antibody)
chain 1: not shown
chain 2: DIQMTQSPSSVSASVGDRVTITCRASQDIANYLSWYQQKPGKSPKLLIYGTSNLEVGVPSRFSGSRSGTDFTLTISSLQPEDFATYYCLQDKEFPRTFGGGTKVEIKRTVASSGCPRFLTRPKASVVSVGKDATLSCQIVGNPFPQVSWEKDKQPVTAGVRFRLAQDGDLYRLKILDLQLSDSGQYVCRARNAHGEAFACLGLQVDAEA
chain 3: B4 chain 3
chain 4: B3 chain 4
On to B7, for which the figures for the EC50 in the assay with hIL5 and with hTSLP were 9.46 nM and 3 nM, respectively.

B8: HJ-8 (bispecific antibody)
chain 1: not shown
chain 2: B7 chain 2 with C115A, C137S, C188S
chain 3: B4 chain 3
chain 4: B3 chain 4
For B8, the EC50 with hIL5 is 18.7 nM; with hTSLP it was 3.33 nM.

B9: HJ-10 (bispecific antibody)
chain 1: not shown
chain 2: B7 chain 2 with C115A
chain 3: B4 chain 3
chain 4: B3 chain 4
Take B9: the EC50 in the assay with hIL5 was 20.8 nM; with hTSLP it was 3.17 nM.

B10: HJ-9 (bispecific antibody)
chain 1: not shown
chain 2: B7 chain 2 with C115A, R121C, C137S, C188S
chain 3: B4 chain 3
chain 4: B3 chain 4
As to B10, the EC50 with hIL5 is 10.9 nM; with hTSLP, 3.18 nM.

B11: murine antibody 2 (antibody, V domains shown)
VH: EVKLVESEGGLVQPGSSMKLSCTASGFTFSDYYMAWVRQVPEKGLEWVANINFDGSSTYYLDSLKSRFIISRDNAKNILYLQMSSLKSEDTATYYCARDLDGYYGYFDVWGTGTTVTVSS
VL: QIVLTQSPAIMSASPGEKVTISCSASSSVSHMYWYQQKPGSSPKPWIYRTSNLASGVPARFSGSGSGTSYSLTISSMEAEDAATYYCQQYHSYPLMFGAGTKLELK
notes: murine hybridoma antibody
For the molecule B11, in assay [5], the binding result is recorded as “binds”.

B12: murine antibody 27 (antibody, V domains shown)
VH: B11 VH with F53Y
VL: B11 VL with H31Y, M96T
notes: murine hybridoma antibody
B12: in assay [5], the binding result was “binds”.

B13: murine antibody 71 (antibody, V domains shown)
VH: QVQLVETGGGLVRPGNSLKLSCVTSGFTFSNYRMHWLRQPPGKRLEWIAVITVKSDNYGSSYAESVKGRFAISRDDSKSSVYLEMNRLREEDTATYFCSRELGQVLVFWGQGTLVTVSA
VL: DVVVTQTPLSLPVSLGDQASISCRSSQSLVHSYGNTYLHWYLQKPGQSPKLLIYKVSNRFSGVPDRFSGSGSGTDFTLKISRVEAEDLGVYFCSQTTHVPWTFGGGTKLEIK
notes: murine hybridoma antibody
As to B13, the binding result in assay [5] is listed as “binds”.

B14: murine antibody 15 (antibody, V domains shown)
VH: EFQLQQSGPELVKPGASVKISCKASGYSFTDHNMNWVKQSNGKSLEWIGLINPNYGTADYNQKFKGKATLTVDQSSTTAFMQFTSLTSEDSAVYYCARGSSLFAYWGQGTLVTVSA
VL: DIVMTQSHKFMSTSVGDRVNITCKASQGVDTAVAWYQQKPGQSPKLLIYWASTRHTGVPDRFTGSGSGTDFTLTISNVQSEDLADYFCQQYSRYPLTFGAGTKLELK
notes: murine hybridoma antibody
B14: the binding result in assay [5] was “binds”.

B15: murine antibody 43 (antibody, V domains shown)
VH: EVKFEESGGGLVQPGGSMKLSCVASGFTFSNYWMNWLRQSPEKGLEWVAQVRLKSDNYATHYAESVKGRFTISRDDSKSSAYLQMNNLRAEDTGIYYCSENYYGPAGPFDFWGQGTTLTVSS
VL: DIVMTQSQKFMSTTVGDRVSITCKASQNVHTSVAWYQQKPGQSPKLLIYSASNRYSGVPDRFTGSGSGTDFTLTINNMQSEDLADYFCQQYSSYPLTFGVGTKLELK
notes: murine hybridoma antibody
With B15, the binding result in assay [5] is “binds”.

B16: murine antibody 46 (antibody, V domains shown)
VH: EVQLVESGGDLVKPGGSLKLSCAASGFTFSNYGMSWVRQTPDKRIKWVATIGSGGGYTYYSDSVKGRFTISRDNAKNTLYLQMSSLKSEDTAIYYCVRHPQIGYWGQGTLVTVSA
VL: B15 VL with S20T, N28S, H30G, S32A, N53S, S56T, N76T, Q89H, V100G, L106I
notes: murine hybridoma antibody
Turning to B16, the binding result in assay [5] was “binds”.

B17: murine antibody 19 (antibody, V domains shown)
VH: EVKLVESEGGLVQPGSSMKLSCTASGFTFSDYYMAWVRQVPERGLEWVANINYDGSSTYYLDSLKSRFIISRDNAKNILYLQMSSLKSEDTATYYCARGGDYWDAMDYWGQGTSVTVSS
VL: DIQMTQTTSSLSASLGDRVTISCRASQDISKYLNWYQQKPDGTVKLLIYYTSSLHSGVPSRFSGSGSGTDYSLTISNLEQEDIATYFCQQGNRLPRTFGGGTKLEIK
notes: murine hybridoma antibody
With B17, in assay [5], the binding result was “binds”.

For the origin of these results see US20250043022A1 (JIANGSU HENGRUI PHARMACEUTICALS, published 2025).
